Results reported in patent publication US20240159758A1 (OPKO DIAGNOSTICS, published 2024).

How the values were obtained:
[1] = target: T1, Free prostate specific antigen (fPSA) (Homo sapiens (Human), UniProt P07288 25-261); test: sandwich (noncompetitive) DELFIA immunoassay, capture probe
T1 construct: also called Free PSA
Protocol: (§1) The concentrations of tPSA and fPSA are determined with commercial assays approved for use in human diagnostics by the FDA (Roche™ Cobas® instrument and Elecsys® assays). The concentrations of iPSA and hK2 are determined using a test developed to run on the PerkinElmer® AutoDELFIA® instrument.
(§2) The presence of iPSA and hK2 are detected by a sandwich (noncompetitive) immunoassay. The iPSA assay employs two distinct mouse monoclonal antibody products. The capture probe is a biotinylated, recombinant His₆-Cys-tagged Fab fragment of the monoclonal antibody 5A10 with specificity for fPSA (of which iPSA is a component). The tracer is a Europium-labelled monoclonal antibody 4D4, with specificity to iPSA and complexed PSA (PSA-ACT). In combination, the reagents are specific for iPSA. The hK2 assay employs five distinct mouse monoclonal antibody products. The capture probe is a biotinylated, F(ab)₂ fragment of 6H10 monoclonal antibody with specificity for hK2 and tPSA. […]
(§3) The signals obtained from the detection of iPSA and hK2 in the immunoassays are then compared to the signals obtained from the detection of a set of standards (e.g. the calibrator solutions) using the same iPSA and hK2 antibodies. […] The reporting range is defined by the limit of quantification (LoQ) at the low end and the highest calibrator at the high end. For the iPSA and hK2 assays, the LoQ was determined using CLSI EP-17A.

[2] = target: T2, Intact prostate specific antigen (iPSA) (Homo sapiens (Human), UniProt P07288 25-261); test: as above
T2 construct: also called Intact PSA
Protocol: as §1, §2, §3

T2 sequence (P07288 25-261 limits assumed): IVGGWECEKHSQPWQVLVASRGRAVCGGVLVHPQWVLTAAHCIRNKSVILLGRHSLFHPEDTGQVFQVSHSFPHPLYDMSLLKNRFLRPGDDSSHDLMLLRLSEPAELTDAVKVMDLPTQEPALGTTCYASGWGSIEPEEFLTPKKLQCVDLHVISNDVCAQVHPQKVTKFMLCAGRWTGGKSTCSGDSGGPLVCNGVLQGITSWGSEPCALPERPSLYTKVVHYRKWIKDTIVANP
T1 sequence (P07288 25-261 limits assumed): as above

B1: biotinylated, recombinant His6-Cys-tagged Fab fragment of the monoclonal antibody 5A10 (Fab, V domains shown)
VH: EVQLVESGPGILQPSQTLSLTCSFSGFSLSTTGMGVSWIRQPSGKGLEWLAHLYWDEDKRYNPSLKSRLTISEDSSRNQVFLKITSVGPADSATYYCARKGYYGYFDYWGQGTALTVSS
VL: DIVMTQSQKFMSTSVGDRVSVTCKASQNVNTDVAWYQQKPGQSPKALIFSTSYRSSGVPDRFTGSGSGTDFTLTITNVQSEDLAEYFCQQYSNYPLTFGAGTKVDLN
modifications: biotinylated (site not stated)
notes: Mouse monoclonal origin; also called Fab 5A10; 5A10 Fab
[1]
  binding result: binds
[2]
  binding result: binds
